Source: publication PMC5838249, “The Apicomplexa-specific glucosamine-6-phosphate N-acetyltransferase gene family encodes a key enzyme for glycoconjugate synthesis with potential as therapeutic target” (Scientific Reports, 2018)

Substrate: CC(=O)SCCNC(=O)CCNC(=O)[C@H](O)C(C)(C)COP(=O)(O)OP(=O)(O)OC[C@H]1O[C@@H](n2cnc3c(N)ncnc32)[C@H](O)[C@@H]1OP(=O)(O)O
Experiment: GNA1 kinetic assay, Michaelis-Menten
Type: biochemical, Cryptosporidium parvum
Details: co-substrate GlcN-6P

B1: CpGNA1 (Cryptosporidium parvum Iowa II) (protein)
chain: MISSFEVRKATIDDYFELRNLICDVTRCTETLSREQAEERFRYNTYHPYCLVDTENGRIVGYAGFYIIPHLGRKNDSRIEHVIISKEYRNRGLGRLLCKQIIEDAKNKFNCGRIDLTVESHIAKKLYSSLEFEKVNTEVMRNSFLDLTPKSD
Protein B1 has a Km of 241.7 ± 35.3 µM.
